Laboratory results reported in patent US10683335B2, “Freeze-dried preparation containing high-purity PTH and method for producing same” (ASAHI KASEI PHARMA CORPORATION, priority 2011, dated 2020).

Tests used:
[1] = Ozone exposure forced degradation of human PTH (1-34) solution (Test Example 2); type: physicochemical; settings: solution with sucrose and sodium chloride, stirred; ozone approximately 0.08 ppm, about 20 hours
Method: A quantity of 4.00 g of sucrose and 0.20 g of sodium chloride were weighed out and dissolved by adding water for injection to make a placebo solution. […] An environment having an ozone concentration of approximately 0.08 ppm by ozone concentration meter was produced using an ozone generator and a blower (initial wind speed approximately 7.2 m/s) to circulate the ozone and make the concentration uniform in a tray having a 40 cm long×90 cm wide×100 cm high glass door. Approximately 15 mL of the reaction stock solution was dispensed into each 20 mL vial. […] Furthermore, the purity was confirmed in accordance with the test conditions of Test Example 1. The degraded solution was freeze dried, and a solution dissolved by a suitable amount of water for injection was taken as a forced-degradation solution. The analogs were fractionated under the following conditions using this solution.

[2] = HPLC area percentage method: amount of PTH analogs in freeze-dried preparations and bulk drug (Test Example 1); type: physicochemical; settings: human PTH (1-34) bulk drug lot, HPLC peak area %
Method: The area percentage method using HPLC is a simple method for assessing the purity of a freeze-dried preparation containing PTH peptide and the amount of analogs. A solution obtained by weighing out 0.25 g of benzalkonium chloride and bringing it to 50 mL by adding 50 mM sulfate buffer (pH 2.3) serves as the loading buffer. Each preparation of the examples and comparative examples is dissolved by 1 mL of physiological saline solution, and a 9:1 mixture of this solution and the loading buffer serves as the sample solution. A quantity of 100 μL of sample solution is tested by HPLC under the following conditions. Furthermore, benzalkonium chloride was used to prevent the peptide that is the target of measurement from attaching to the instrument and the like.
Detector: Ultraviolet absorptiometer (measurement wavelength: 214 nm)
Column: Stainless steel tube 150 mm long having an inner diameter of 4.6 mm packed with 3.5 μm of octadecylsilylated silica gel
Column temperature: Constant temperature near 40° C.
Mobile phase: Mobile phase A: Dissolve 28.4 g of anhydrous sodium sulfate in 900 mL of water and bring to 1000 mL by adding water after adding phosphoric acid to adjust the pH to 2.3. Add 100 mL of acetonitrile to this 900 mL of liquid.
Mobile phase B: Dissolve 28.4 g of anhydrous sodium sulfate in 900 mL of water and bring to 1000 mL by adding water after adding phosphoric acid to adjust the pH to 2.3 Add 500 mL of acetonitrile to 500 mL of this liquid.
Mobile phase feed: Concentration gradient control is provided by varying the mixture ratio of mobile phase A and mobile phase B as follows.
Sample temperature: Constant temperature near 5° C.
Detection time: 45 minutes after injection of the sample solution. However, this is from the back of the solvent peak.
Calculation method: The amount of each PTH analog and the total amount thereof was determined by performing liquid chromatography under the above conditions, measuring each peak area by automatic integration, and performing calculation using Formulas 1 and 2. Furthermore, the total peak area was the sum total of the area of all peaks detected by performing liquid chromatography under the above conditions. […] Amount of each PTH analog (%)=(peak area of each analog/total peak area)×100 Formula 1: Total amount of PTH analogs (%)=(sum total of peak areas of each analog/total peak area)×100 Formula 2:

CC[C@H](C)[C@H](NC(=O)[C@H](CCC(=O)O)NC(=O)[C@H](CO)NC(=O)[C@@H](NC(=O)[C@@H](N)CO)C(C)C)C(=O)N[C@@H](CCC(N)=O)C(=O)N[C@@H](CC(C)C)C(=O)N[C@@H](CCSC)C(=O)N[C@@H](Cc1cnc[nH]1)C(=O)N[C@@H](CC(N)=O)C(=O)N[C@@H](CC(C)C)C(=O)NCC(=O)N[C@@H](CCCCN)C(=O)N[C@@H](Cc1cnc[nH]1)C(=O)N[C@@H](CC(C)C)C(=O)N[C@@H](CC(N)=O)C(=O)N[C@@H](CO)C(=O)N[C@@H](CCSC)C(=O)N[C@@H](CCC(=O)O)C(=O)N[C@@H](CCCN=C(N)N)C(=O)N[C@H](C(=O)N[C@@H](CCC(=O)O)C(=O)N[C@@H](Cc1c[nH]c2ccccc12)C(=O)N[C@@H](CC(C)C)C(=O)N[C@@H](CCCN=C(N)N)C(=O)N[C@@H](CCCCN)C(=O)N[C@@H](CCCCN)C(=O)N[C@@H](CC(C)C)C(=O)N[C@@H](CCC(N)=O)C(=O)N[C@@H](CC(=O)O)C(=O)N[C@H](C(=O)N[C@@H](Cc1cnc[nH]1)C(=O)N[C@@H](CC(N)=O)C(=O)N[C@@H](Cc1ccccc1)C(=O)O)C(C)C)C(C)C [Human PTH (1-34)]
Purity after exposure to ozone atmosphere [1]: approximately 20%
Total amount of human PTH (1-34) analogs after exposure to ozone atmosphere [1]: 80%

human PTH (1-34) [lot A]
Amount of (6) Human PTH (1-34)-Met 8 [O] ([2]; listed as A): 0.08%

human PTH (1-34) [lot B]
Amount of (6) Human PTH (1-34)-Met 8 [O] ([2]; listed as B): 0.07%
Amount of (7) Human PTH (1-34)-Met 18 [O] ([2]; listed as B): 0.09%

human PTH (1-34) [lot D]
Amount of (6) Human PTH (1-34)-Met 8 [O] ([2]; listed as D): 0.05%
Amount of (7) Human PTH (1-34)-Met 18 [O] ([2]; listed as D): 0.06%

human PTH (1-34) [lot E]
Amount of (6) Human PTH (1-34)-Met 8 [O] ([2]; listed as E): 0.05%
Amount of (7) Human PTH (1-34)-Met 18 [O] ([2]; listed as E): 0.07%

human PTH (1-34) [lot F]
Amount of (6) Human PTH (1-34)-Met 8 [O] ([2]; listed as F): 0.14%
Amount of (7) Human PTH (1-34)-Met 18 [O] ([2]; listed as F): 0.21%

human PTH (1-34) [lot G]
Amount of (6) Human PTH (1-34)-Met 8 [O] ([2]; listed as G): 0.17%
Amount of (7) Human PTH (1-34)-Met 18 [O] ([2]; listed as G): 0.23%

human PTH (1-34) [lot H]
Amount of (6) Human PTH (1-34)-Met 8 [O] ([2]; listed as H): 0.06%
Amount of (7) Human PTH (1-34)-Met 18 [O] ([2]; listed as H): 0.09%
